Assay results reported in patent US10519238 (Dana-Farber, dated 2019).

What was measured:
[1] = molecular target: T1, endogenous murine Gal1 (galectin-1) in lysates of the murine melanoma line B16-F10 (mouse, UniProt P16045 2-135); assay: Western blot of B16-F10 cell lysate, antibody titration
T1 construct: Endogenous protein in cell lysate, seen on Western blot; also called mouse Gal1
Excerpt: (§1) WB analysis of cell lysates derived from human Hodgkin lymphoma line, L428 and murine melanoma line, B16-F10. Lysates were probed with 8A12 at different titration showing a specific band of Gal1 (~14 kDa), 8A12 recognizes endogenous human and murine Gal1 at similar range of titres.

[2] = molecular target: T2, recombinant human galectin-1 (R&D Systems) (human, UniProt P09382 2-135); assay: SPR (BIAcore 3000, 25 C), 8A12 captured via anti-mouse antibody, galectin as analyte, 1:1 Langmuir fit
T2 construct: Bought from R&D Systems; also called rhGal1; human galetin-1
Method: (§2) Surface Plasmon Resonance (SPR) analyses (also called Biomolecular Interaction Analysis, BIAcore) were also conducted in order to further define the biophysical properties (e.g., $kon$, $koff$, $koff/kon$ (K_D) of Gal1's interaction with the 8A12 mAb. SPR experiments were performed at 25° C. in the standard BIAcore running buffer HBS-EP on a BIAcore 3000 Instrument (BIAcore). In brief, anti-mouse antibody was first captured on the CM-5 sensor chip ((GE HealthCare). Afterwards, approximately 250 response units (RU) of anti-Gal1 mAb 8A12 were immobilized (with exception of ~350 RU for rmGal1 assay) and followed by various dilutions of recombinant galectin (human galetin-1, 2, 3, 4, 7, 8, 9 or murine galectin-1 (mGal1), from R&D Systems) to assess the binding of galectin 8A12. All data are shown after subtraction from a channel loaded with buffer alone. Data analysis to obtain the binding curves shown and equilibrium dissociation constant (KD) was performed using BIAevaluation 3.1 (BIAcore) by globally fitting the data to a simple 1:1 (Langmuir) binding model.

[3] = molecular target: T3, recombinant murine galectin-1 (R&D Systems) (mouse, UniProt P16045 2-135); assay: as above
T3 construct: Bought from R&D Systems; also called rmGal1; mGal1
Method: as §2

[4] = molecular target: T4, endogenous human Gal1 (galectin-1) in lysates of the human Hodgkin lymphoma line L428 (human, UniProt P09382 2-135); assay: Western blot of L428 cell lysate, antibody titration
T4 construct: Endogenous protein in cell lysate, seen as a band of ~14 kDa on Western blot; also called hGal1
Excerpt: as §1

[5] = molecular target: T5, recombinant human galectin-4 (R&D Systems) (human, UniProt P56470 2-323, limits assumed); assay: SPR (BIAcore 3000), 8A12 captured via anti-mouse antibody, galectin as analyte
T5 construct: also called Gal4
T5 sequence (looked up): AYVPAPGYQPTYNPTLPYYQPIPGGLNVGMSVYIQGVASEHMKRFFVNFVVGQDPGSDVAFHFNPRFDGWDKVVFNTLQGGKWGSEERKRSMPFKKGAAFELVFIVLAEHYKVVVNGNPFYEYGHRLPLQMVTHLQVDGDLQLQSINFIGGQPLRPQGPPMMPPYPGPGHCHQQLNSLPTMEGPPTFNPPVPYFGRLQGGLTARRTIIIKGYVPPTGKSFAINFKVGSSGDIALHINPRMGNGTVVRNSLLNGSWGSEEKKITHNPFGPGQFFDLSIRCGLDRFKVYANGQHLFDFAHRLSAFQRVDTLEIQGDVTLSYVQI
Method: as §2

[6] = molecular target: T6, recombinant human galectin-9 (R&D Systems) (human, UniProt O00182-2 2-323, limits assumed); assay: as above
T6 construct: also called Gal9
Method: as §2

[7] = molecular target: T7, recombinant human galectin-3 (R&D Systems) (human, UniProt P17931 2-250); assay: as above
T7 construct: also called Gal3
Method: as §2

[8] = molecular target: T8, recombinant human galectin-8 (R&D Systems) (human, UniProt O00214 1-317, limits assumed); assay: as above
T8 construct: also called Gal8
T8 sequence (looked up): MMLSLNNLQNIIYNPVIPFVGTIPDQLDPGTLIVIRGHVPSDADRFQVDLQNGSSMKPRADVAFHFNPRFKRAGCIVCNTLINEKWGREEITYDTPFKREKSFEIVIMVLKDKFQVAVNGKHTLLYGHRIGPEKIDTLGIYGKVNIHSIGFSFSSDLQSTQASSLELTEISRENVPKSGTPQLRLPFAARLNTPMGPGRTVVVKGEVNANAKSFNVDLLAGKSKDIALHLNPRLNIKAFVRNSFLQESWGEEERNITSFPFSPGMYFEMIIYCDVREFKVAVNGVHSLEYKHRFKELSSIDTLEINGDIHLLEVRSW
Method: as §2

[9] = molecular target: T9, recombinant human galectin-7 (R&D Systems) (human, UniProt P47929 2-136, limits assumed); assay: as above
T9 construct: also called Gal7
Method: as §2

[10] = molecular target: T10, recombinant human galectin-2 (R&D Systems) (human, UniProt P05162 1-132, limits assumed); assay: as above
T10 construct: also called Gal2
T10 sequence (looked up): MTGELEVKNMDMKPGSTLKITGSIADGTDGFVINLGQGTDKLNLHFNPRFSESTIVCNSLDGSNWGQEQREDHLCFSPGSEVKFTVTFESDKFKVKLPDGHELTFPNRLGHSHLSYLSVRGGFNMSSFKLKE
Method: as §2

[11] = molecular target: T11, recombinant GST-tagged full length human Gal1 (F7) (human, UniProt P09382 1-135); assay: Western blot
T11 construct: Produced in E. coli; also called GST-F7; not shown: glutathione S-transferase (GST) tag
Method: Anti-Gal1 monoclonal antibodies were generated and were determined to cross-react well with both human Gal1 and mouse Gal1 (FIG. 1). […] Six recombinant human Gal1 fragments (covering the N-terminal, CBD, post-CBD sequences) named F1, F2, F3, F4, F5, F6 and the full length protein F7 in fusion with GST-tag were produced in E. coli (FIG. 2).

T11 sequence (P09382 whole entry): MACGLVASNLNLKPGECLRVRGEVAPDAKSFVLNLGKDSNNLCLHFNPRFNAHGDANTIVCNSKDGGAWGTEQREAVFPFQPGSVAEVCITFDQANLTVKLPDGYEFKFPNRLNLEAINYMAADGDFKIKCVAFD
T1 sequence (P16045 2-135 limits assumed): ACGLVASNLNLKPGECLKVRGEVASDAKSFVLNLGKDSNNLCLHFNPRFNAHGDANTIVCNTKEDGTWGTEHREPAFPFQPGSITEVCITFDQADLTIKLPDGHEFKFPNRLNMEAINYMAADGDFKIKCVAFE
T3 sequence (P16045 2-135 limits assumed): as above
T9 sequence (P47929 2-136 limits assumed): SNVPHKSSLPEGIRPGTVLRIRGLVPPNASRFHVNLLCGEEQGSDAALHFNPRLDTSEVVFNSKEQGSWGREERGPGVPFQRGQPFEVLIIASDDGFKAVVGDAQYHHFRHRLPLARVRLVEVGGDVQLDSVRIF
T7 sequence (P17931 2-250 limits assumed): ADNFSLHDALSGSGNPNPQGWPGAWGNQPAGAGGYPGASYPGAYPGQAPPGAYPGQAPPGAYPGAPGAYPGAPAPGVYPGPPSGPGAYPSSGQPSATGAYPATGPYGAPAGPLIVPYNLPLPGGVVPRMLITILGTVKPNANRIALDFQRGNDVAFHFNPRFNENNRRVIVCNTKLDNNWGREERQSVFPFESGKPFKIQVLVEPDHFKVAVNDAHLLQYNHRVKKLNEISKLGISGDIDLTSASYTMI
T6 sequence (O00182 other isoform, or with tags, fused parts or gaps limits assumed): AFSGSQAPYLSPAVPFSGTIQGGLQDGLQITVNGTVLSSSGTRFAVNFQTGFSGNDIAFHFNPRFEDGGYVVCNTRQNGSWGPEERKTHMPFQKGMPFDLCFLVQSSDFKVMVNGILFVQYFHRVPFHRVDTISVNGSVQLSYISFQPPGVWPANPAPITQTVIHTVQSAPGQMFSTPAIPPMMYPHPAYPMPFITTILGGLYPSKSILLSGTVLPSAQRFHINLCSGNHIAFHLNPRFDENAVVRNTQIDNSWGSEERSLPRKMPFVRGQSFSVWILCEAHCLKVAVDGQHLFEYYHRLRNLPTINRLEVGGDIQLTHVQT
T4 sequence (P09382 2-135 limits assumed): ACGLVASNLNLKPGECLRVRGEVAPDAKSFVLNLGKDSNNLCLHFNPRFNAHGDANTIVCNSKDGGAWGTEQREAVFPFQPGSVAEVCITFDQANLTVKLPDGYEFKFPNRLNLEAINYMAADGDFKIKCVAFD
T2 sequence (P09382 2-135 limits assumed): as above

B1: anti-Gal1 monoclonal antibody 8A12.H9.H10 (antibody, V domains shown)
VH: QAYLQQSGAELVRPGASVRMSCKASGYTFTRYNMHWVKQTPRQGLEWIGRIYPGNGDTSYNQKFKGKATLTVDKSSSTAYMQLSSLTSEDSAVYFCTVWDYWGQGTTLTVSS
VL: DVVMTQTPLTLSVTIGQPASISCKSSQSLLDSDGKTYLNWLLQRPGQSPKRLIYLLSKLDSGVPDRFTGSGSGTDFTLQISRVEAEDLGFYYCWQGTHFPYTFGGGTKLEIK
notes: Murine monoclonal antibody from a hybridoma with a kappa light chain; Signal peptide limits are stated in base pairs and were converted to residues; also called 8A12 mAb; 8A12 antibody
Question: Does B1 bind [1]?
Answer: binds

Question: Does B1 bind [2]?
Answer: binds

Question: Does B1 bind [3]?
Answer: binds

Question: Does B1 bind [4]?
Answer: binds

Question: Does B1 bind [5]?
Answer: no binding

Question: Does B1 bind [6]?
Answer: no binding

Question: Does B1 bind [7]?
Answer: no binding

Question: Does B1 bind [8]?
Answer: no binding

Question: Does B1 bind [9]?
Answer: no binding

Question: Does B1 bind [10]?
Answer: no binding

Question: Does B1 bind [11]?
Answer: binds
